Data on one molecule can be found in patent US20110206701A1 (AbbVie / Abbott, published 2011).

For the assay, the target named is T1, CS1 (CD2-subset 1) (human, UniProt Q9NQ25 23-335).
T1 construct: whole, on cells; In the immunohistochemistry the protein stood in formalin-fixed, paraffin-embedded tissue sections; also called SLAMF7; CRACC
Kind of assay: flow cytometry on normal blood NK and NK/T cells, directly conjugated antibody. (In general: In flow cytometry, cells or beads pass a laser one at a time.)

B1: HuLuc63 (elotuzumab), humanized anti-CS1 antibody (antibody, V domains shown)
VH: EVQLVESGGGLVQPGGSLRLSCAASGFDFSRYWMSWVRQAPGKGLEWIGEINPDSSTINYAPSLKDKFIISRDNAKNSLYLQMNSLRAEDTAVYYCARPDGNYWYFDVWGQGTLVTVSS
VL: DIQMTQSPSSLSASVGDRVTITCKASQDVGIAVAWYQQKPGKVPKLLIYWASTRHTGVPDRFSGSGSGTDFTLTISSLQPEDVATYYCQQYSSYPYTFGQGTKVEIK
For the molecule B1, the binding result was “binds”.
